The target in assay [1] is T1, IGF-II (human) (human, UniProt P01344 25-91).
T1 construct: also called radioiodinated IGF-II
The experiment in a line: BIAcore, IGF-II on chip against IGF-I on chip, 200 nM. The protocol:
(§1) Instrument and reagents (buffers, chemicals for activating and deactivated) were purchased from BIAcore (Uppsala, Sweden). IGF-I, IGF-II and des(1-3)IGF-I were immobilized on the sensor chip by amine coupling and deactivated with 0.1M ethanolamine. A reference flow cell was also prepared to correct for background and bulk refractive index contribution. After equilibration buffer to achieve a stable baseline, binding experiments was at 22 C in 2 separate experiments with the samples injected in random order. 40 μl of each sample was injected over the sensor surface at a rate of 10 μl/min (association period), followed by a 6 min wash with buffer (dissociation period). The sensor surface was regenerated with 20 μl of 100 mM HCl and washed for 6 min before the next sample. We used a 1:1 Langmuir binding interaction model for kinetic analysis using the BIAcore software and GraphPad Prism (GraphPad Software Inc, San Diego, Calif.).
(§2) The interaction of proteolysed IGFBP-1 with IGF-I and IGF-II biosensor surfaces was analysed (BIAcore). In FIG. 12 the mean biosensorgrams for the interaction of 200 nM phosphorylated IGFBP-1 intact are shown, and after 2-h and 4-h incubations with partially purified azurocidin, with immobilized IGF-I (FIG. 12A) and IGF-II (FIG. 12B). […]
(In general: SPR reads the build-up and loss of mass on a sensor chip optically.)

Another assay has as its target T2, des(1-3)IGF-I (human, UniProt P05019 52-118).
T2 construct: domain: des(1-3)IGF-I (mature IGF-I without its first three residues)
The experiment in a line: BIAcore, des(1-3)IGF-I amine-coupled on chip. The method, then:
Recombinant pIGFBP-1 was analyzed across a des(1-3) IGF-I biosensor surfaces with a concentration range of 50, 100, 200, 400 nM, at a flow rate of 10 μl/min. The mean sensorgrams are shown for 400 nM IGFBP-1 (intact, n=3) and 200 nM IGFBP-1, intact (0 h, n=4) and after 2-h (n=5) and 4-h (n=3) incubations with partially purified azurocidin in a protease:substrate ratio of 1:3 500 for 2 h at 37 C.
as §1, with “We used a 1:1 Langmuir binding interaction model for kinetic analysis using the BIAcore software and GraphPad Prism (GraphPad Software Inc, San Diego, Calif.).” left out
The interaction of IGFBP-1 with des(1-3)IGF-I on the biosensor surface was also determined. […]

The target in assay [2] is T1, IGF-II (human). Kind of assay: BIAcore, IGF-II on chip against IGF-I on chip, 400 nM. The protocol:
as §1
The interaction of proteolysed IGFBP-1 with IGF-I and IGF-II biosensor surfaces was analysed (BIAcore). […] The kinetic analyses of the rates of association (over 21-120 s, ks) and dissociation (over 261-360 s, kd) for the results shown in FIGS. 12A and 12B are summarized in Table 2. […] The rate of dissociation further increased to more than 7-fold at the 4-h time point. […]

The target of assay [3] is T3, Recombinant IGF-I (human) (human, UniProt P05019 49-118).
T3 construct: also called IGF-1; full length IGF-I
The experiment in a line: BIAcore, IGF-I on chip, 400 nM. The protocol: as §1, §2

Assay [4] has as its target T1, IGF-II (human). The experiment in a line: BIAcore, IGF-II on chip, 200 nM (the reference itself). The method, then:
as §1, §2

Assay [5] deals with T1, IGF-II (human). Kind of assay: cell-based or functional assay.
Assay [6] addresses T3, Recombinant IGF-I (human). Kind of assay: BIAcore, IGF-I on chip, 200 nM (the reference itself). The method, then: as §1, §2
Assay [7] concerns the target T1, IGF-II (human). Kind of assay: BIAcore, IGF-II on chip, 400 nM. The method, then:
The sensor surface was regenerated with 20 μl of 100 mM HCl and washed for 6 min before the next sample. We used a 1:1 Langmuir binding interaction model for kinetic analysis using the BIAcore software and GraphPad Prism (GraphPad Software Inc, San Diego, Calif.).
The interaction of proteolysed IGFBP-1 with IGF-I and IGF-II biosensor surfaces was analysed (BIAcore). […] The kinetic analyses of the rates of association (over 21-120 s, ks) and dissociation (over 261-360 s, kd) for the results shown in FIGS. 12A and 12B are summarized in Table 2. […] The rate of dissociation further increased to more than 7-fold at the 4-h time point. The rate of dissociation of IGFBP-1 from IGF-II was greater than twice that from IGF-I, and proteolysis had no effect on this relationship.
TABLE 2 Kinetic analysis of interactions of intact and proteolysed phosphorylated IGFBP-1 with IGF biosensor surfaces The kinetic data shown in […] were analysed using the 1:1 Langmuir interaction model. IGFBP-I was injected either intact, or after 2- or 4-proteolysis by azurocidin, over IGF-I and IGF-II biosensor surfaces.

T1 sequence (P01344 25-91 limits assumed): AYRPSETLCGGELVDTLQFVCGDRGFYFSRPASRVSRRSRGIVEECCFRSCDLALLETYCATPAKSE
T3 sequence (P05019 49-118 limits assumed): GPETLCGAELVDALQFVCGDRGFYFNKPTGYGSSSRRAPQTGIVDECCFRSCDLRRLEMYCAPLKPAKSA
T2 sequence (P05019 52-118 limits assumed): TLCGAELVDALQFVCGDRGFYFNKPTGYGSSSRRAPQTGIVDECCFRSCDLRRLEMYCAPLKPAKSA

B1: Recombinant phosphorylated IGFBP-1 (human), intact (other, UniProt P08833 26-259, looked up)
chain: APWQCAPCSAEKLALCPPVSASCSEVTRSAGCGCCPMCALPLGAACGVATARCARGLSCRALPGEQQPLHALTRGQGACVQESDASAPHAAEAGSPESPESTEITEEELLDNFHLMAPSEEDHSILWDAISTYDGSKALHVTNIKKWKEPCRIELYRVVESLAKAQETSGEEISKFYLPNCNKNGFYHSRQCETSMDGEAGLCWCVYPWNGKRIPGSPEIRGDPNCQIYFNVQN
modifications: phosphorylated; the sites were not determined here (the filing names Ser101, Ser119, Ser169 as sites for phosphorylation)
notes: mature; Analyte in the BIAcore runs and substrate in the protease assays; also called pIGFBP-1; recombinant pIGFBP-1
As for B1, the “kd rel to IGF-I” value in the assay with IGF-II (human) [1] amounted to 2.41 ratio; with IGF-II (human) [2], 2.33 ratio. Further, the “ks rel to IGF-I” value in the assay with IGF-II (human) [1] came to 1.02 ratio; in the assay with IGF-II (human) [2], 1.01 ratio. For the same molecule, in the assay with des(1-3)IGF-I, the “fold lower biosensor response than with full length IGF-I” value is 10 fold less. The “rel kd (relative to 200 nM intact pIGFBP-1)” value in assay [3] worked out at 1 ratio; in the assay with IGF-II (human) [4], 1 ratio; in assay [6], 1 ratio; with IGF-II (human) [7], 0.97 ratio. Besides, the “rel ks (relative to 200 nM intact pIGFBP-1)” value in assay [3] was 1.91 ratio; with IGF-II (human) [4] it was 1 ratio; in assay [6], 1 ratio; with IGF-II (human) [7], 1.86 ratio. Further, the “3H-thymidine incorporation in MCF-7 cells stimulated by IGF-II 10 ng/ml (2-fold without IGFBP-1)” value in the assay with IGF-II (human) [5] was determined as 1.5 fold.
